From patent US20090263410A1, “USE OF TGF-B1 INHIBITOR PEPTIDES IN THE PREPARATION OF AN IMMUNE RESPONSE MODULATING AGENT” (Proyecto De Biomedicina Cima, S.L., priority 2005, published 2009)

Biological target: T1, TGF-β1 (Mus musculus, UniProt P04202)
T1 construct: an in vivo system wherein TGF-β1 acts as supposed antagonist of the cytokines induced in this model; from tissue; host or cells: living BALB/c mice (Harlan), endogenous TGF-β1; read-out in serum
Assay: In vivo activity of recombinant adenovirus for mouse IL-12: IFN-γ and NO levels in serum
Design: species or system BALB/c mice
Text: This example studies the effect of peptide p144 in an in vivo system wherein TGF-β1 acts as supposed antagonist of the cytokines induced in this model. The production of mouse IL-12 by the expression of a transgen included in the recombinant adenovirus, induces an inflammatory state through the induction of a cascade of factors, including IFN-γ and nitric oxide. TGF-β1 has been described as an inhibitor of the production and biological action of IL-12, IFN-γ and NO (Pardoux C. et al., 1999; Schini V. B. et al., 1992). […]
Blood samples were extracted from both groups on days 6 and 9 after immunization for the subsequent quantification of IFN-γ and NO levels in serum.
The quantity of IFN-γ was measured by a commercial ELISA (Mouse IFN-γ Duoset ELISA Development System, Genzyme, Cambridge and OPTEIA Mouse IFN-γ Ser, Pharmingen, San Diego, USA) in accordance with the manufacturer's instructions. The results were expressed as pg/ml of IFN-γ and using a standard curve of known quantities of IFN-γ. […]
NO2* emission is in the red and infrared region of the light spectrum and is detected by a red-sensitive photomultiplier tube. This signal is quantified and the data obtained are collected and processed by a computer.

T1 sequence (P04202 279-390 limits assumed): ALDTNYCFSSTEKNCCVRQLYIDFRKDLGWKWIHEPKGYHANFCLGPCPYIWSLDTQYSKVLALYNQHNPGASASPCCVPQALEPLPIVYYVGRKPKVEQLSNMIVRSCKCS

p144: peptide inhibiting TGF-β1 whose amino acid sequence corresponds to SEQ ID NO: 1 (TSLDASIIWAMMQN; Synthetic Construct from human TGB-Beta1 type III receptor.Domain730-743)
serum levels of IFN-γ (RAd IL-12 1×10^8 pfu i.p. plus p144 daily 100 μg for 5 days, versus RAd IL-12 alone): increases | NO serum levels (day 6, RAd IL-12 1×10^8 pfu i.p. plus p144, versus RAd IL-12 alone): greater level
